# Data taken from patent US20200190189A1.
# Legend:
# [1] = target: Human CD3 on T cells in donor PBMC (human) (UniProt P07766); experiment: cell-based or functional assay
# [2] = target: Human CD3εδ heterodimeric Fc fusion (human); experiment: ForteBio BLI, Fab KD, monovalent
# [3] = target: Cynomolgus CD3εδ heterodimeric Fc fusion (cynomolgus); experiment: ForteBio BLI, Fab KD, monovalent
# Human CD3 on T cells in donor PBMC (human), sequence (P07766 23-207): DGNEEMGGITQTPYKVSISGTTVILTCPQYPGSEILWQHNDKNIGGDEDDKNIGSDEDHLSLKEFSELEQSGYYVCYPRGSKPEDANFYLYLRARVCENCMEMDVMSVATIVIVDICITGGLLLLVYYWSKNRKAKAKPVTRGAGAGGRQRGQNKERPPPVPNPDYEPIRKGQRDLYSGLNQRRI
Binder,D5801 10 nM Fab IFNg [1],"Fab IFNg, donor A4560 PBMC, 0.3 nM [1]","Fab IFNg, donor A4560 PBMC, 10 nM [1]","Fab IFNg, donor D5801 PBMC, 0.3 nM [1]","Fab IFNg, donor D5801 PBMC, 10 nM [1]",Kd [2],Kd [3]
"ADI-26954 Fab (Fab, from a related filing, V domains shown) VH: QVQLVQSGAEVKKPGASVKVSCKASGFNIKDYYMHWVRQAPGQRLEWMGWIDLENANTIYDAKFQGRVTITRDTSASTAYMELSSLRSEDTAVYYCARDNYGGYFYDVWGQGTLVTVSS VL: DIVMTQSPDSLAVSLGERATINCKSSQSLLESRTGKNYLAWYQQKPGQPPKLLIYWASTRESGVPDRFSGSGSGTDFTLTISSLQAEDVAVYYCKQSYSLRTFGGGTKVEIK",0 pg/mL,0 pg/mL,0 pg/mL,0 pg/mL,,,
"ADI-26928 Fab (Fab, from a related filing, V domains shown) VH: QVQLVQSGAEVKKPGASVKVSCKASGFNIKDYYMHWVRQAPGQRLEWMGWIDLEEGNTIYDAKFQGRVTITRDTSASTAYMELSSLRSEDTAVYYCGRDAYGLYFYDVWGQGTLVTVSS VL: DIVMTQSPDSLAVSLGERATINCKSSQSLLNARTGKNYLAWYQQKPGQPPKLLIYWASTRESGVPDRFSGSGSGTDFTLTISSLQAEDVAVYYCKQSYSLRTFGGGTKVEIK",,,,,0 pg/mL,,
"ADI-26941 Fab (Fab, from a related filing, V domains shown) VH: QVQLVQSGAEVKKPGASVKVSCKASGFNIKDYYMHWVRQAPGQRLEWMGWIDLEEGNTIYDAKFQGRVTITRDTSASTAYMELSSLRSEDTAVYYCARDQYGRYFYDVWGQGTLVTVSS VL: DIVMTQSPDSLAVSLGERATINCKSSQSLLNARTGKNYLAWYQQKPGQPPKLLIYWASTRESGVPDRFSGSGSGTDFTLTISSLQAEDVAVYYCKQSYSIRTFGGGTKVEIK",0 pg/mL,,,,,1100 nM,220 nM
